Measurements published in patent US12084487B2, “Nanoparticles having molecules that bind or block PD-L1 and uses in treating cancer” (Emory University, priority 2016, dated 2024).

Molecular target: T1, PD-L1 on tumor cell surfaces (mouse pancreatic cancer KC cells) (Mus musculus, UniProt Q9EP73)
T1 construct: endogenous in cells; host or cells: KC mouse pancreatic cancer cells (Pdx1-Cre; LSL-K-rasG12D derived)
Assay: Competition-binding assay of FITC labeled PD-1 peptides with anti-mouse PD-L1 antibody on KC cells
Conditions: for fluorescence intensity on cells: FITC labeled peptide 2 μg/ml
Procedure: Two (2) μg of FITC labeled PD-1 peptides were mixed with 0, 5, 20 μg of anti-mouse PD-L1 antibody and then incubated with the KC cells for 2 hours. Unbound peptides and antibodies were washed off. Relative fluorescent intensities of KC cells were measured for each group.
Next, a competition-binding assay was performed to determine specificity of the PD-1 like peptides binding to PD-L1 on tumor cell surfaces. […] The peptides were then added to tissue culture plates with mouse pancreatic cancer KC cells.

T1 sequence (Q9EP73 19-290): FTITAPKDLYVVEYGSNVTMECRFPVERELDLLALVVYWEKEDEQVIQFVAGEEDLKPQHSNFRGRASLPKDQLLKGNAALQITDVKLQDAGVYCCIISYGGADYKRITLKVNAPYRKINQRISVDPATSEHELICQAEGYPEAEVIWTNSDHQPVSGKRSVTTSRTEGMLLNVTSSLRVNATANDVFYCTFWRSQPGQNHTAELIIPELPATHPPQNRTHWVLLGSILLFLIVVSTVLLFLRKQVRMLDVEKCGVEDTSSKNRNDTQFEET

## NWNRLSPSNQTEKQAACGAISLHPKAKIEESPGHHHH [PD-1(Lin)]
  fluorescence intensity on cells: High levels of fluorescence intensity

## NWNRLSPSNQTEKQAAPHHHHCGAISLHPKAKIEE [PD-1 (Y)]
20 μg/ml anti-PD-L1 antibody
  binding to cells with anti-PD-L1 antibody added: reduced
  fluorescence intensity on cells: High levels of fluorescence intensity
